Laboratory results: patent US12304939B2, “EGFR and C-met fibronectin type III domain binding molecules” (Janssen Biotech, Inc., priority 2012, dated 2025)
“And” between values parts separate entries of the source, which are not always exact repeats. Equal entries are not always repeated. “Also recorded” adds a separate entry of the source.

Key:
EGFR [1] = biological target: T1, EGFR (Homo sapiens, UniProt P00533); assay: Inhibition of EGFR phosphorylation in NCI-H292 cells; assay type: cell-based; parameters: host or cells: NCI-H292; details: FIG. 5A
Protocol: Purified EGFR-binding FN3 domains were tested for their ability to inhibit EGF-stimulated phosphorylation of EGFR in A431 cells at a single concentration. EGFR phosphorylation was monitored using the EGFR phospho(Tyr1173) kit (Meso Scale Discovery). […] Controls were treated with starvation medium only. […] One set of control wells was left un-stimulated as negative controls. Medium was completely removed, and cells were lysed with 100 μL/well of Complete Lysis Buffer (Meso Scale Discovery) for 10 minutes at room temperature with shaking, as per the manufacturer's instructions. […] Signals were detected by addition of 150 μL/well of Read Buffer (Meso Scale Discovery) and reading on a SECTOR® Imager 6000 instrument (Meso Scale Discovery) using manufacturer-installed assay-specific default settings. Percent inhibition of the EGF-stimulated positive control signal was calculated for each EGFR-binding FN3 domain.
NCI-H292, NCI-H441, or NCI-H596 cells were plated in 96 well plates in RPMI medium containing 10% FBS. […] Cells were lysed with MSD Lysis Buffer and cell signaling was assessed using appropriate MSD Assay plates, according to manufacturer's instructions, as described above.

EGFR [2] = biological target: T1, EGFR; assay: Inhibition of EGFR phosphorylation in NCI-H441 cells; assay type: cell-based; parameters: host or cells: NCI-H292; details: FIG. 5C
Protocol: (§1) NCI-H292, NCI-H441, or NCI-H596 cells were plated in 96 well plates in RPMI medium containing 10% FBS. 24 hours later, medium was replaced with serum free RPMI. […] Cells were treated for 1 h with the monospecific or bispecific molecules and then stimulated with EGF, HGF, or a combination of EGF and HGF for 15 minutes at 37° C., 5% CO2. Cells were lysed with MSD Lysis Buffer and cell signaling was assessed using appropriate MSD Assay plates, according to manufacturer's instructions, as described above.

EGFR [3] = biological target: T1, EGFR; assay: Inhibition of EGFR phosphorylation in NCI-H596 cells; assay type: cell-based; parameters: host or cells: NCI-H292; details: FIG. 5B
Protocol: as §1

[4] = Body weight loss and tolerability in the H292-HGF xenograft study; details: mouse, in vivo; listed as bispecific EGFR/c-Met molecule
Protocol: At the time of routine monitoring, the animals were checked for any effects of tumor growth and treatments on normal behavior, such as mobility, visual estimation of food and water consumption, body weight gain/loss (body weights were measured twice weekly), eye/hair matting and any other abnormal effect.
Animals for which the body weight loss exceeded 20%, or for which the mean tumor size of the group exceeds 2000 mm^3 were euthanized. The study was terminated after two weeks of observation after the final dose.

[5] = system: H292-HGF human lung cancer xenograft; assay: Efficacy of bispecific molecule and other inhibitors of EGFR and c-Met, subcutaneous H292-HGF human lung cancer xenograft; assay type: in vivo, SCID/Beige mice; details: for Tumor volume: mean ± SEM
Protocol: The H292-HGF cells were maintained in vitro in RPMI1640 medium supplemented with fetal bovine serum (10% v/v), and L-glutamine (2 mM) at 37° C. in an atmosphere of 5% CO2 in air. The cells were routinely subcultured twice weekly by trypsin-EDTA treatment. The cells growing in an exponential growth phase were harvested and counted for tumor inoculation.
Each mouse was inoculated subcutaneously at the right flank region with H292-HGF tumor cells (2×10^6) in 0.1 ml of PBS with cultrex (1:1) for tumor development. The treatments were started when the mean tumor size reached 139 mm3. […] The date of tumor cell inoculation was denoted as day 0.
Before commencement of treatment, all animals were weighed, and the tumor volumes were measured. Since the tumor volume can affect the effectiveness of any given treatment, mice were assigned into groups using randomized block design based upon their tumor volumes. […] The randomized block design was used to assign experimental animals to groups. First, the experimental animals were divided into homogeneous blocks according to their initial tumor volume. Secondly, within each block, randomization of experimental animals to treatments was conducted.
The endpoint was whether tumor growth can be delayed or tumor bearing mice can be cured. Tumor size was measured twice weekly in two dimensions using a caliper, and the volume was expressed in mm3 using the formula: V=0.5 a×b2 where a and b are the long and short diameters of the tumor, respectively. The tumor size was then used for calculations of both T-C and T/C values. T-C was calculated with T as the time (in days) required for the mean tumor size of the treatment group to reach 1000 mm3, and C was the time (in days) for the mean tumor size of the control group to reach the same size. The T/C value (in percent) was an indication of antitumor efficacy; T and C were the mean tumor volume of the treated and control groups, respectively, on a given day. Complete tumor regression (CR) is defined as tumors that are reduced to below the limit of palpation (62.5 mm3). Partial tumor regression (PR) is defined as tumors that are reduced from initial tumor volume. A minimum duration of CR or PR in 3 or more successive tumor measurements is required for a CP or PR to be considered durable.
Statistical analyses of difference in tumor volume among the groups were evaluated using a one-way ANOVA followed by individual comparisons using Games-Howell (equal variance not assumed). All data were analyzed using SPSS 18.0. p<0.05 was considered to be statistically significant.

[6] = system: NCI-H292 cells expressing human HGF; assay: Tumor efficacy study with four bispecific EGFR/c-Met molecules, H292-HGF xenografts; assay type: in vivo, SCID Beige mice; details: 25 mg/kg three times per week
Protocol: One week after implantation, mice were stratified into groups with equivalent tumor volumes (mean tumor volume=77.9+/−1.7 mm3). Mice were dosed three times per week with the bispecific molecules and tumor volumes were recorded twice weekly.

[7] = system: cell lines shown in Table 20; assay: Inhibition of human tumor cell growth by bispecific molecule in cell line panel (standard or low attachment); assay type: cell-based
Protocol: (§2) Inhibition of human tumor cell growth was assessed in standard attachment culture as described in Examples 3 or 6, or in low attachment conditions.

H292 cells = assay: Inhibition of proliferation of HGF-induced H292 cells; assay type: cell-based, human; details: bispecific molecules
Excerpt: Inhibition of tumor cell proliferation can be measured using standard methods and methods described herein.
The proliferation assay was completed using different combinations EGFR and c-Met binding FN3 domains either as a mixture or linked in a bispecific format. […] This confirmed that the avidity effect observed at the level of the receptors (FIG. 4 and FIG. 5) translates into an improvement in inhibiting cell signaling (Table 12) and cell proliferation (Table 13).
as §2

c-Met-Fc fusion protein = biological target: T2, c-Met-Fc fusion protein (Homo sapiens, UniProt P08581); assay: c-Met-Fc affinity by surface plasmon resonance (Proteon); assay type: binding
T2 construct: recombinant EGFR and/or c-Met extracellular domain
T2 sequence (P08581 25-932 limits assumed): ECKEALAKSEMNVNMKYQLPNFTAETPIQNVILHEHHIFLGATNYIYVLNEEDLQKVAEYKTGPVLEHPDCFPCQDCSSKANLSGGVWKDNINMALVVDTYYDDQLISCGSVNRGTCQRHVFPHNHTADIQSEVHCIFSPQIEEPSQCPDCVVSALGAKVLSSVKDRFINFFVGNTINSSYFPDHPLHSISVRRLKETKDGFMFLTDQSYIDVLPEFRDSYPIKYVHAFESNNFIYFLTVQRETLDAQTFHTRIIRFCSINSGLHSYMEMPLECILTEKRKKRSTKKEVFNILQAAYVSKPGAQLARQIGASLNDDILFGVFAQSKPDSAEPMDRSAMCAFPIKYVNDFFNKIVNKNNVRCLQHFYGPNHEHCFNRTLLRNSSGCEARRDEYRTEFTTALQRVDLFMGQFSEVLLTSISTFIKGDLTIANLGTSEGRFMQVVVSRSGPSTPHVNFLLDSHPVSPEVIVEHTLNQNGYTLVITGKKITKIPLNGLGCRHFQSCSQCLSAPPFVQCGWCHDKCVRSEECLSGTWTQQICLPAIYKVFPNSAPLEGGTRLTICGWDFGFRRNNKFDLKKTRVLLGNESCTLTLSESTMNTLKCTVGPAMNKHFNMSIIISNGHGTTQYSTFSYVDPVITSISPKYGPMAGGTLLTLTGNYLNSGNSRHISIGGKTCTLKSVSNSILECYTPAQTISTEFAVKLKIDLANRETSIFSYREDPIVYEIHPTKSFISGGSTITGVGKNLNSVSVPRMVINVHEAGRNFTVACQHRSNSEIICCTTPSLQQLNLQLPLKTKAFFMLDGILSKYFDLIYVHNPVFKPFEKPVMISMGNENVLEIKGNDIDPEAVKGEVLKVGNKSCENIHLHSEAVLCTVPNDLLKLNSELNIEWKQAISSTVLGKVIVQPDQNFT

[8] = biological target: T3, recombinant EGFR extracellular domain (EGFR-Fc) (Homo sapiens, UniProt P00533); assay: EGFR-Fc affinity by surface plasmon resonance (Proteon); assay type: binding; details: bispecific molecules; read-out: KD (EGFR)
T3 construct: purchased R&D Systems
Protocol: Select EGFR-binding FN3 domains were screened to identify those with slow off-rates (koff) in binding to EGFR-Fc on a ProteOn XPR-36 instrument (Bio-Rad) to facilitate selection of high affinity binders. Goat anti-human Fc IgG (R&D systems), at a concentration of 5 μg/mL, was directly immobilized via amine coupling (at pH 5.0) on all 6 ligand channels in horizontal orientation on the chip with a flow rate of 30 μL/min in PBS containing 0.005% Tween-20. The immobilization densities averaged about 1500 Response Units (RU) with less than 5% variation among different channels. EGFR-Fc was captured on the anti-human Fc IgG surface to a density around 600 RU in vertical ligand orientation. All tested FN3 domains were normalized to a concentration of 1 μM and tested for their binding in horizontal orientation. […] The dissociation phase was monitored for 10 minutes at a flow rate of 100 μL/min. […]
Binding affinity of selected EGFR-binding FN3 domains to recombinant EGFR extracellular domain was further characterized by surface Plasmon resonance methods using a Proteon Instrument (BioRad). […] The dissociation phase for all concentrations of each EGFR-binding FN3 domain was monitored at a flow rate of 100 μL/min for 30 minutes (for those with koff ˜10^−2 s^−1 from off-rate screening), or 1 hour (for those with koff ˜10^−3 s^−1 or slower). […]

[9] = serine mutants of A3 in the context of ECB15

B1: ECB5: bispecific SEQ ID NO: 54: P53A1R5-17v2, (GGGGS)4, P114AR7P94-A3 (protein)
chain: MLPAPKNLVVSEVTEDSARLSWADPHGFYDSFLIQYQESEKVGEAIVLTVPGSERSYDLTGLKPGTEYTVSIYGVHNVYKDTNMRGLPLSAIFTTGGGGSGGGGSGGGGSGGGGSMLPAPKNLVVSRVTEDSARLSWTAPDAAFDSFWIRYFEFLGSGEAIVLTVPGSERSYDLTGLKPGTEYVVNIMGVKGGKISPPLSAIFTT
modifications: bispecific EGFR/cMet binding molecule
For B1, which “inhibition of phosphorylation of EGFR, bispecific versus monospecific” value (EGFR [1]) is on record?
The value was “comparable”.

What about the “decrease of IC50 for inhibition of EGFR phosphorylation compared to monospecific EGFR-binding FN3 domain” value (EGFR [2]) of the same molecule?
The value was 30 fold.

And the “inhibition of phosphorylation of EGFR, bispecific versus monospecific” value (EGFR [3])?
The value was “comparable”.

B2: ECB38: bispecific SEQ ID NO: 120: P54AR4-83v2, (AP)5, P114AR7P94-A3, linked to albumin binding domain (protein)
chain: MLPAPKNLVVSEVTEDSARLSWDDPWAFYESFLIQYQESEKVGEAIVLTVPGSERSYDLTGLKPGTEYTVSIYGVHNVYKDTNMRGLPLSAIFTTAPAPAPAPAPLPAPKNLVVSRVTEDSARLSWTAPDAAFDSFWIRYFEFLGSGEAIVLTVPGSERSYDLTGLKPGTEYVVNIMGVKGGKISPPLSAIFTTAPAPAPAPAPLAEAKVLANRELDKYGVSDYYKNLINNAKTVEGVKALLDEILAALP
modifications: Bispecific EGFR/c-Met binding molecule
Which “toxicity, body weight loss, tolerability (in words)” value [4] does the source give for B2 here?
The value was “Slight toxicity; also recorded: tolerated in 7 out of 10 mice”.

And the “Tumor Size at day 23” value ([5]; bispecific 25 mg/kg, crizotinib, erlotinib 50 mg/kg, cetuximab 1 mg/mouse, listed as bispecific EGFR/c-Met molecule)?
The value was 23 mm^3 and 23 ± 7 mm^3.

What about the Tumor volume ([5]; day 7 (start of treatment)) of the same molecule?
Its Tumor volume is 137 ± 7 mm^3.

And the Tumor volume ([5]; day 9)?
The Tumor volume was 142 ± 7 mm^3.

And the Tumor volume ([5]; day 13)?
The Tumor volume was 83 ± 6 mm^3.

And the Tumor volume ([5]; day 16)?
The Tumor volume was 44 ± 7 mm^3.

What about the Tumor volume ([5]; day 20) of the same molecule?
Its Tumor volume is 30 ± 6 mm^3.

What about the Tumor volume ([5]; day 23) of the same molecule?
The Tumor volume was 23 ± 7 mm^3.

What about the Tumor volume ([5]; day 27) of the same molecule?
Its Tumor volume is 21 ± 5 mm^3.

And the Tumor volume ([5]; day 30)?
Its Tumor volume is 23 ± 6 mm^3.

What about the “antitumor activity (in words)” value ([5]; mouse, in vivo, listed as bispecific EGFR/c-Met molecule) of the same molecule?
The value was “complete tumor regression (CR) in all mice; also recorded: complete response”.

And the “tumor growth (tumor growth inhibition, TGI)” value [6]?
The value was “reduced tumor growth”.

What about the “tumor growth (tumor growth inhibition, TGI)” value ([6]; listed as P54AR4-83v2-P114AR7P94-A3) of the same molecule?
Its value is “showed the most efficacy”.

B3: ECB15: bispecific SEQ ID NO: 57: P54AR4-83v2, (AP)5, P114AR7P94-A3 (protein)
chain: MLPAPKNLVVSEVTEDSARLSWDDPWAFYESFLIQYQESEKVGEAIVLTVPGSERSYDLTGLKPGTEYTVSIYGVHNVYKDTNMRGLPLSAIFTTAPAPAPAPAPLPAPKNLVVSRVTEDSARLSWTAPDAAFDSFWIRYFEFLGSGEAIVLTVPGSERSYDLTGLKPGTEYVVNIMGVKGGKISPPLSAIFTT
modifications: bispecific EGFR/cMet binding molecule
Which “growth of NCI-H1975 cell line” value ([7]; EGFR L858R, T790M) does the source give for B3 here?
The value was “inhibited growth”.

And the “tumor cell growth of cell lines shown in Table 20” value ([7]; wild type, amplified or mutant EGFR, wild type or amplified c-Met)?
Its value is “inhibited tumor cell growth”.

And the IC50 (H292 cells)?
The IC50 was 23 nM.

What about the ka (c-Met-Fc fusion protein; [9]) of the same molecule?
Its ka is 351000 M⁻¹ s⁻¹.

And the kd (c-Met-Fc fusion protein; [9])?
Its kd is 0.000133 s⁻¹.

B4: ECB168: bispecific SEQ ID NO: 190: P54AR4-83v22, (AP)5, P114AR7P95-C5v2 (protein)
chain: MLPAPKNLVVSEVTEDSARLSWDDPWAFYESFLIQYQESEKVGEAIVLTVPGSERSYDLTGLKPGTEYTVSIYGVHNVYKDTNIRGLPLSAIFTTAPAPAPAPAPLPAPKNLVVSRVTEDSARLSWTAPDAAFDSFWIRYFEFLGSGEAIVLTVPGSERSYDLTGLKPGTEYVVNILSVKGGSISPPLSAIFTT
modifications: Bispecific EGFR/c-Met molecule
For B4, which Kd [8] is on record?
Its Kd is 0.4 nM.

What about the IC50 (H292 cells) of the same molecule?
The IC50 was 3.1 nM.

And the Kd (c-Met-Fc fusion protein; bispecific molecules, read-out: KD (c-Met))?
The Kd was 0.32 nM.
